# From article PMC6650433, “Evolution of metazoan oxygen-sensing involved a conserved divergence of VHL affinity for HIF1α and HIF2α” (Nature Communications, 2019)
# Changes are numbered by the printed parent chain. Names may count otherwise. [ ]: non-standard residue; d: D form. The star is where a group is joined. Biotin = O=C1N[C@H]2[C@H](CS[C@H]2CCCCC(=O)*)N1; Hyp = O=C(O)[C@@H]1C[C@@H](O)CN1
# B1: HIF2α ODD T528M: IVTT 3xFLAG-HIF2α(390–554) ODD protein with T528M substitution (protein, UniProt Q99814 390-554, looked up, fragment T528M)
# chain: FTKLKEEPEELAQLAPTPGDAIISLDFGNQNFEESSAYGKAILPPSQPWATELRSHSTQSEAGSLPAFTVPQAAAPGSTTPSATSSSSSCSTPNSPEDYYTSLDNDLKIEVIEKLFAMDTEAKDQCSTQTDFNELDLEMLAPYIPMDGEDFQLSPICPEERLLAE
# modifications: ODD 3xFLAG tag
# notes: IVTT 3xFLAG-HIF2α(390–554) ODD protein with T528M substitution
# B2: HIF1α ODD M561T: IVTT 3xFLAG-HIF1α ODD (387–581) with M561T substitution (protein)
# chain: FDKLKKEPDALTLLAPAAGDTIISLDFGSNDTETDDQQLEEVPLYNDVMLPSPNEKLQNINLAMSPLPTAETPKPLRSSADPALNQEVALKLEPNPESLELSFTMPQIQDQTPSPSDGSTRQSSPEPNSPSEYCFYVDSDMVNEFKLELVEKLFAEDTEAKNPFSTQDTDLDLETLAPYIPMDDDFQLRSFDQLS
# modifications: hydroxylated in vitro by HIS6-PHD2 (181–426) for one hour before the binding; left off: 3xFLAG, end not stated, kept
# notes: IVTT 3xFLAG-HIF1α ODD (387–581) with M561T substitution
# B3: HIF1αODD WT: IVTT 3xFLAG-tagged HIF1α oxygen-dependent degradation domain (387–581), wild type (protein)
# chain: B2 chain with T175M
# modifications: hydroxylated in vitro by HIS6-PHD2 (181–426) for one hour before the binding; left off: 3xFLAG, end not stated, kept
# notes: IVTT 3xFLAG-tagged HIF1α oxygen-dependent degradation domain (387–581), wild type
# Tests used:
# [1] = test system: HA-VHL30; assay: In vitro pVHL-HIFα binding (pulldown) assay, VHL WT; design: species or system human; details: 1.2 μg biotinylated peptide on streptavidin agarose beads, IVTT HA-VHL30, EBC buffer, two hours at 4 °C, anti-HA immunoblot, qualitative
# Description: The in vitro pVHL-HIFα binding assay was performed as previously described. HA-VHL30 was expressed in an IVTT rabbit reticulocyte lysate system (Promega, Cat. No. L1170) and incubated with 1.2 μg of biotinylated HIFαOH peptide immobilized on streptavidin agarose beads in 500 μL of EBC buffer (50 mM Tris-HCl pH 8.0, 120 mM NaCl, 0.5% (v/v) NP-40) for two hours at 4 °C. To perform a competition binding assay, 1.8 μg of biotinylated HIFαOH peptide immobilized on streptavidin agarose beads competed with 1 μg of acetylated HIFαOH peptide. Following incubation, beads were washed 4x with NETN buffer (20 mM Tris-HCl pH 8.0, 100 mM NaCl, 1 mM EDTA, 0.5% (v/v) NP-40). Biotinylated peptide was pulled down via streptavidin agarose beads and protein was eluted by boiling beads in sample buffer. Protein levels of HA-VHL30 were determined by immunoblotting.
# [2] = target: T1, VHL-elongin B-elongin C (VBC) complex (Homo sapiens, UniProt P40337+Q15369+Q15370); assay: Biolayer interferometry, VBC WT binding to immobilized HIFα peptide; details: VHL/HIFα binding experiments, Fig. 2b (pulldown) and Fig. 2d (BLI), in words
# T1 construct: made in house
# T1 sequence (P40337 54-213 limits assumed): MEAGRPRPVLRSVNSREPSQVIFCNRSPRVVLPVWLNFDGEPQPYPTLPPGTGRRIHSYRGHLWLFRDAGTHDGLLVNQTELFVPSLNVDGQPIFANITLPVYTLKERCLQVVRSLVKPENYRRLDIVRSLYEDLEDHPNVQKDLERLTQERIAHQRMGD
# T1 sequence (Q15370 whole entry partner): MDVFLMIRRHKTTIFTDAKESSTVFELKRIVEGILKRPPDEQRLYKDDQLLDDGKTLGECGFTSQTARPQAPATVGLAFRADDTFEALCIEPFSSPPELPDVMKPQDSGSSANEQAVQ
# T1 sequence (Q15369 17-112 partner limits assumed): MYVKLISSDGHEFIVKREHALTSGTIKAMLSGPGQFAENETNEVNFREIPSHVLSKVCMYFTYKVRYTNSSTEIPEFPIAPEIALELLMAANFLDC
# Description: The binding affinities of VBC to hydroxylated HIFα peptide was measured by biolayer interferometry using the BLItz system (Pall ForteBio). A 50 μg/mL solution of biotinylated HIFα peptide was prepared in kinetics buffer (20 mM HEPES pH 7.4, 200 mM NaCl, 1 mM DTT, 0.02% (v/v) Tween-20, and 0.5% (w/v) BSA) and immobilized onto streptavidin (SA)-coated biolayer interferometry (BLI) biosensors (Pall ForteBio, Cat. No. 18–5019) over 120 s. Multiple concentrations of purified VBC complex were diluted in kinetics buffer and allowed to associate with immobilized peptide over 120 s. Subsequently, the SA-BLI probe was immersed into kinetics buffer for 120 s to allow for dissociation. Both protein and buffer were chilled on ice immediately before use. The data were analyzed, step corrected, reference corrected, and fit to a global 1:1 binding model. Kd, ka, and kd were calculated using the BLItz Pro software. All measurements were performed in triplicate with independently purified recombinant protein.
# [3] = test system: HA-VHL30; assay: In vitro hydroxylation and co-immunoprecipitation of HIFα ODD with VHL WT; type: binding, human; details: IVTT 3xFLAG-HIFα ODD hydroxylated with HIS6-PHD2 (181–426) for 1 h, anti-FLAG IP, anti-HA immunoblot, compared with the WT ODD, qualitative
# Description: (§1) 3xFLAG-HIFα ODD was expressed via the rabbit reticulocyte lysate system. HIFα ODD was incubated with 15 μg/μL HIS6-PHD2 (181–426) in 200 μL of 40 mM HEPES pH 7.4, 80 mM KCl, 5 mM a-ketoglutarate, 2 mM ascorbic acid, 100 μM FeCl2 tetrahydrate solution at 30 °C for 1 h. Following hydroxylation, 3xFLAG-HIFα was incubated with IVTT VHL30 in 500 μL of wash buffer (40 mM HEPES pH 7.4, 80 mM KCl, 0.05% (v/v) Tween-20, 250 μM EDTA, 1 mM DTT) supplemented with protease inhibitors for 2 h at 4 °C. Following binding, 3xFLAG-HIFα ODD was immunoprecipitated with anti-FLAG antibody immobilized on protein A beads. Protein was eluted by boiling beads in sample buffer. Protein levels of HA-VHL30 were determined by immunoblotting.
# [4] = test system: VHL F91Y; assay: In vitro hydroxylation and co-immunoprecipitation of HIFα ODD with VHL F91Y; type: binding, human; details: IVTT 3xFLAG-HIF1α ODD hydroxylated with HIS6-PHD2, anti-FLAG IP, anti-HA immunoblot, qualitative
# Description: as §1
# [5] = target: VHL-elongin B-elongin C (VBC) complex, wild type, P40337;Q15370;Q15369; assay: biolayer interferometry (BLI); details: chain shown with the change;, read off a plot
molecule,measurement,setting,value
"Bio-HIF1αOH(M561A): hydroxylated HIF1α peptide, Met561 substituted with alanine (Biotin-DLDLEALA[Hyp]YIPMDDDFQ-NH2; SMILES CC[C@H](C)[C@H](NC(=O)[C@H](Cc1ccc(O)cc1)NC(=O)[C@@H]1C[C@@H](O)CN1C(=O)[C@H](C)NC(=O)[C@H](CC(C)C)NC(=O)[C@H](C)NC(=O)[C@H](CCC(=O)O)NC(=O)[C@H](CC(C)C)NC(=O)[C@H](CC(=O)O)NC(=O)[C@H](CC(C)C)NC(=O)[C@H](CC(=O)O)NC(=O)CCCC[C@@H]1SC[C@@H]2NC(=O)N[C@@H]21)C(=O)N1CCC[C@H]1C(=O)N[C@@H](CCSC)C(=O)N[C@@H](CC(=O)O)C(=O)N[C@@H](CC(=O)O)C(=O)N[C@@H](CC(=O)O)C(=O)N[C@@H](Cc1ccccc1)C(=O)N[C@@H](CCC(N)=O)C(N)=O)",levels of HA-VHL pulled down by immobilized biotinylated HIFαOH peptide (affinity for VHL),[1],decreased affinity for pVHL
HIF1αOH(D570delinsGE): hydroxylated HIF1α peptide with insertion of Glyn+6 to mimic HIF2α (Biotin-DLDLEMLA[Hyp]YIPMDGDDFQ-NH2; SMILES CC[C@H](C)[C@H](NC(=O)[C@H](Cc1ccc(O)cc1)NC(=O)[C@@H]1C[C@@H](O)CN1C(=O)[C@H](C)NC(=O)[C@H](CC(C)C)NC(=O)[C@H](CCSC)NC(=O)[C@H](CCC(=O)O)NC(=O)[C@H](CC(C)C)NC(=O)[C@H](CC(=O)O)NC(=O)[C@H](CC(C)C)NC(=O)[C@H](CC(=O)O)NC(=O)CCCC[C@@H]1SC[C@@H]2NC(=O)N[C@@H]21)C(=O)N1CCC[C@H]1C(=O)N[C@@H](CCSC)C(=O)N[C@@H](CC(=O)O)C(=O)NCC(=O)N[C@@H](CC(=O)O)C(=O)N[C@@H](CC(=O)O)C(=O)N[C@@H](Cc1ccccc1)C(=O)N[C@@H](CCC(N)=O)C(N)=O),VHL/HIFα complex stability,[2],does not overtly modulate complex stability
HIF2α T528M: hydroxylated HIF2α peptide with T528M substitution (Biotin-ELDLEMLA[Hyp]YIPMDGEDFQ-NH2; SMILES CC[C@H](C)[C@H](NC(=O)[C@H](Cc1ccc(O)cc1)NC(=O)[C@@H]1C[C@@H](O)CN1C(=O)[C@H](C)NC(=O)[C@H](CC(C)C)NC(=O)[C@H](CCSC)NC(=O)[C@H](CCC(=O)O)NC(=O)[C@H](CC(C)C)NC(=O)[C@H](CC(=O)O)NC(=O)[C@H](CC(C)C)NC(=O)[C@H](CCC(=O)O)NC(=O)CCCC[C@@H]1SC[C@@H]2NC(=O)N[C@@H]21)C(=O)N1CCC[C@H]1C(=O)N[C@@H](CCSC)C(=O)N[C@@H](CC(=O)O)C(=O)NCC(=O)N[C@@H](CCC(=O)O)C(=O)N[C@@H](CC(=O)O)C(=O)N[C@@H](Cc1ccccc1)C(=O)N[C@@H](CCC(N)=O)C(N)=O),levels of HA-VHL pulled down by immobilized biotinylated HIFαOH peptide (affinity for VHL),[1],increased affinity for VHL
HIF2αOH(∆G537): hydroxylated HIF2α peptide with deletion of G537 (Biotin-ELDLETLA[Hyp]YIPMDEDFQ-NH2; SMILES CC[C@H](C)[C@H](NC(=O)[C@H](Cc1ccc(O)cc1)NC(=O)[C@@H]1C[C@@H](O)CN1C(=O)[C@H](C)NC(=O)[C@H](CC(C)C)NC(=O)[C@@H](NC(=O)[C@H](CCC(=O)O)NC(=O)[C@H](CC(C)C)NC(=O)[C@H](CC(=O)O)NC(=O)[C@H](CC(C)C)NC(=O)[C@H](CCC(=O)O)NC(=O)CCCC[C@@H]1SC[C@@H]2NC(=O)N[C@@H]21)[C@@H](C)O)C(=O)N1CCC[C@H]1C(=O)N[C@@H](CCSC)C(=O)N[C@@H](CC(=O)O)C(=O)N[C@@H](CCC(=O)O)C(=O)N[C@@H](CC(=O)O)C(=O)N[C@@H](Cc1ccccc1)C(=O)N[C@@H](CCC(N)=O)C(N)=O),levels of HA-VHL pulled down by immobilized biotinylated HIFαOH peptide (affinity for VHL),[1],minor decrease in affinity for VHL
"MetO2: hydroxylated HIF1α peptide, Met561 completely oxidized to methionine sulfone (MetO2)",levels of HA-VHL pulled down by immobilized biotinylated HIFαOH peptide (affinity for VHL),[1],further decrease in VHL affinity
"NLE-substituted HIF1α: hydroxylated HIF1α peptide, Met561 substituted with norleucine",levels of HA-VHL pulled down by immobilized biotinylated HIFαOH peptide (affinity for VHL),[1],did not affect the affinity
B1,affinity of HIFα ODD protein for VHL (HA-VHL co-immunoprecipitated),[3],increased the affinity
B2,affinity of HIFα ODD protein for VHL (HA-VHL co-immunoprecipitated),[3],decreased affinity
same,"HIFα ODD bound by VHL F91Y, compared with VHL WT",[4],bound less
B3,"HIFα ODD bound by VHL F91Y, compared with VHL WT",[4],bound less
"ELDLETLAPYIPMDEDFQ [hydroxylated HIF2α peptide (523–541), biotinylated G537del]",koff,[5]; parent: est. 0.0075 s-1,0.011 s⁻¹
same,koff,[5]; parent: est. 0.0078,0.011 s⁻¹
